Measurements: patent US9610371B2, “Anticancer therapy” (STC.UNM, priority 2005, dated 2017)
Read-outs that look alike come from different tables or passages of the source.

Key:
[1] = 25 day toxicology in tumor bearing male Lewis rats; assay type: in vivo, Lewis rat; conditions: rat, in vivo
Description: Toxicology was assessed at 25 days in 4 groups of tumor bearing male Lewis rats (average volume […]). Rats in the first group, Cohort 1, were injected on day 1 only. Rats in second cohort were injected on days 1 and 2, while rats in the third cohort were injected on days 1, 2, and 3. Rats were injected with 2.56 μg, 0.5 μg, 0.5 μg DOTATOC, on day 1, day 2 and day 3, respectively, with a nominal activity of 3.7 MBq. Each dose was divided into 2 injections at 1 hour intervals. The rats received the following cumulative average activities per group: Cohort 1 (N=3) received 4.3±0.7 MBq, Cohort 2 (N=3) received 9.0±0.4 MBq, and Cohort 3 (N=4) received 12.6±0.3 MBq of ^213Bi-DOTATOC. Cohort 4 (N=4) was added as control group and injected twice daily with unlabelled DOTATOC on three consecutive days.
After 24 days, the animals were put into a metabolic cage to collect urine samples for creatinine clearance analysis. Creatine clearance was determined as previously described (20). After 24 hour urine collection, the animals were euthanized with halothane. For blood collection, a cardiac puncture was performed. Blood analysis consisted of hemoglobin (Hgb), hematocrit (Hct), red blood cells (RBC's), and white blood cells (WBC's) with differential, and platelets (Pt's). Additionally T4 and FSH values were assessed using the serum.
Additional groups were then designed to study the effects of the treatment on a somatostatin receptor positive tumor. The first group was designed to study the effects of treatment on large volume tumors (average volume 1720±608 mm^3). This group, Cohort 5 (N=5), received three fractionated doses of ^213Bi-DOTATOC (specific activity 7.4 MBq ^213Bi/1 μG DOTATOC) with a total average cumulative dose of 13.0±0.5 MBq of ^213Bi-DOTATOC. The last cohort, the sixth cohort (N=4), was injected with two fractionated doses, ^213Bi-DOTATOC (specific activity 7.4 MBq ^213Bi/1 μG DOTATOC) with a total average cumulative dose of 22.2±0.7 MBq of ^213Bi-DOTATOC. As described earlier, each dose was divided into 2 injections separated by a 1 hour interval. Tumor response to the treatment was assessed in all cohorts by daily tumor measurements.
(§1) Organs were harvested and immediately placed in 10% formalin for a minimum of 48 hours. Following fixation in formalin, bone samples were placed in decalcifying solution for 36 hours. Trimmed organs were sent to the TriCore Laboratories (Albuquerque, N. Mex.) where they were embedded in paraffin, sectioned, and stained with Hematoxylin and Eosin (H and E). Histopathologic evaluation was performed by a board certified veterinary pathologist (DFK) who examined the following organs of each animal: heart, lung, kidneys, testicles, spleen, pancreas, pituitary bone marrow, urinary bladder, adrenals, and two different sections of the liver.
(§2) Sections of both the right and left kidneys were examined to determine nephrotoxicity in all cohorts. Bone marrow was examined to evaluate hypoplasia and other lesions in Cohorts 3 and 4. Interstitial nephritis and bone marrow were scored as follows: 0 no lesions, 1 minimal lesions, 2 mild lesions, 3 moderate lesions, and 4 severe lesions.
(§3) For the pathology scoring, to evaluate nephrotoxicity on the 6 treatment groups, a frequency analysis was performed in StatXact-5 using the Jonckheere-Terpstra Test. For all other data, graphs and calculations were performed in SigmaStat®-3 and SigmaPlot®-9 as well as Graph Pad Prism®-4 using the t-test. For all statistical tests results were considered significant when p<0.05. Animal biodistribution and tumor volume data are expressed as the average, plus or minus the SEM.

[2] = rat, in vivo
Description: A 26 week toxicology study was performed in 3 groups of rats. The first group, Cohort 7 (N=3), received three fractionated doses ^213Bi-DOTATOC (specific activity 7.4 MBq ^213Bi/1 μG DOTATOC with a total average cumulative dose of 12.75±1.1 MBq. The second group, Cohort 8 (N=3), received D-lysine (concentration 400 mg/mL) immediately before receiving three fractionated doses ^213Bi-DOTATOC with a specific activity 7.4 MBq ^213Bi/1 μG DOTATOC with a total average cumulative dose of 11.39±0.14 MBq. The third group, cohort 9 (N=3) received 3 fractionated doses of DOTATOC. Rats were injected with 2.56 μg, 0.5 μg, 0.5 μg DOTATOC, on day 1, day 2 and day 3, respectively. As described earlier, each dose was divided into 2 injections separated by a 1 hour interval.
as §1, §2

[3] = Biodistribution in tumor bearing and non-tumor bearing rats; conditions: rat, in vivo, total radioactivity
[4] = as above; conditions: rat, in vivo
Description: FIG. 13: A, B Graphical comparisons of Tumor and Non-Tumor Bearing Rats at 1 hour post injection of ^213Bi-DOTATOC. Columns, means, Bars, SEM, white columns represent non-tumor bearing rats and black columns represent tumor bearing rats. Significance of p<0.05 is represented by a (*).
as §3

C[C@@H](O)[C@@H]1NC(=O)[C@H](CCCCN)NC(=O)[C@@H](Cc2c[nH]c3ccccc23)NC(=O)[C@H](Cc2ccc(O)cc2)NC(=O)[C@@H](NC(=O)[C@@H](Cc2ccccc2)NC(=O)CN2CCN(CC(=O)O)CCN(CC(=O)O)CCN(CC(=O)O)CC2)CSSC[C@@H](C(=O)N[C@H](CO)[C@@H](C)O)NC1=O [^213Bi-DOTATOC, metal not drawn]
FSH values vs control animals [1]: No significant changes
average histopathologic score for nephrititis [1]: 1
hematology results vs control group [1]: did not show any significant differences
histopathological examination of heart, lungs, liver, spleen, urinary bladder [1]: no evidence of treatment induced toxicity
histopathology of testes, adrenals, pancreas [1]: No histopathologic abnormalities
likelihood of interstitial nephrititis with dose [1]: increased with increasing dose
nephrotoxicity with low-dose [1]: minimal nephrotoxicity
toxicity in the high-dose treatment cohort (kidney) [1]: Minimal toxicity
FSH or T4 serum values vs control animals [2]: No significant changes
adrenal histopathology [2]: minimal nodular cortical hyperplasia in both adrenals
creatinine clearance vs control group (DOTATOC only) [2]: No difference
hematology results vs control group [2]: did not show any significant differences
liver histopathology [2]: mild or moderate cholangiohepatitis and perivasculitits
lung histopathology [2]: minimal to mild interstitial pneumonia
microcystic degeneration in the pituitary [2]: mild to moderate
microcystic pancreatic degeneration [2]: mild to moderate
rats with one adrenal each with nodular cortical hyperplasia [2]: 2 rats
tissue uptake at 3 h ([3]; accumulation of radioactivity in the blood): 0.02 %ID/g
tissue uptake at 3 h ([3]; accumulation of radioactivity in the bone marrow): 0.06 ± 0.02 %ID/g
tissue uptake at 3 h ([3]; accumulation of radioactivity in the kidneys): 11.2 ± 0.46 %ID/g
tissue uptake at 3 h ([3]; accumulation of radioactivity in the liver): 0.14 ± 0.02 %ID/g
tissue uptake at 3 h ([3]; accumulation of radioactivity in the spleen): 0.08 ± 0.01 %ID/g
tissue uptake at 3 h ([3]; accumulation of radioactivity in the stomach): 0.08 ± 0.01 %ID/g
tissue uptake at 3 h ([3]; accumulation of radioactivity in the testis): 0.02 %ID/g
localization in stomach and muscle, tumor vs non-tumor bearing rats [4]: significantly higher
